Consider two substances from patent US20110311544A1.

Assay [1] concerns the target CD71 (transferrin receptor) on human tumour cell lines (human) (UniProt P02786). The experiment in a line: quantitative flow cytometry on A375 cells, background control, medium FCS, no Tf-Fe.
For assay [2] the target is unchanged. In words: quantitative flow cytometry on A375 cells, background control, medium FCS, with Tf-Fe.
Assay [3] has the same target. The experiment in a line: quantitative flow cytometry on A375 cells, background control, medium human AB serum, no Tf-Fe.
Assay [4] has the same target. The experiment in a line: quantitative flow cytometry on A375 cells, background control, medium human AB serum, with Tf-Fe.
Assay [5] shares this target. In words: flow cytometry, biotin-OKT9 on A375 cells after pre-incubation with control ascites NS1 at 4° C. (no competitor).
The target is the same in assay [6]. In words: flow cytometry, biotin-OKT9 on A375 cells after pre-incubation with control ascites NS1 at 37° C. (no competitor).

Chain of UniProt P02786 (P02786 whole entry): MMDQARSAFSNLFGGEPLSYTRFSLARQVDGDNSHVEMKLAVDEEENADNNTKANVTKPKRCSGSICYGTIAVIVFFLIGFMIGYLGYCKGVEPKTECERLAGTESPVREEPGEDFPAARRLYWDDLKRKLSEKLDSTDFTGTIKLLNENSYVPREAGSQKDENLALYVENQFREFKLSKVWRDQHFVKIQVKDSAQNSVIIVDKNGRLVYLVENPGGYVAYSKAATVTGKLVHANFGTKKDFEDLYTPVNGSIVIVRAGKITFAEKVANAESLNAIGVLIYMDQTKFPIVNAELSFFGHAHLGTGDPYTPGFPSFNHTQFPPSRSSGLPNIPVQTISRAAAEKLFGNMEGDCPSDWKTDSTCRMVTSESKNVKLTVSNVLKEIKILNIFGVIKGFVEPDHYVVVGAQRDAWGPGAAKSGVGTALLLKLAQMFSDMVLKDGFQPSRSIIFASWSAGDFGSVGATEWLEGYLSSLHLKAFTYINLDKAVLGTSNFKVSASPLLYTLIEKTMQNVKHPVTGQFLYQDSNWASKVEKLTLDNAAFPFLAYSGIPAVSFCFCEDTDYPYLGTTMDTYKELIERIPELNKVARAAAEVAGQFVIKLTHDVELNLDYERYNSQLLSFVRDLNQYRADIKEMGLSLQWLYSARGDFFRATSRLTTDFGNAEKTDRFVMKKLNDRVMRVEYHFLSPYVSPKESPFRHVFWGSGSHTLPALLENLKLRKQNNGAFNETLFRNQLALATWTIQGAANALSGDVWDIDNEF

For the substance control ascites NS1, the Sites in assay [1] was 3250 sites; in assay [2], 3310 sites; in assay [3] it was 5790 sites; in assay [4] it was 5790 sites.
As for “biotin-labeled anti-CD71 mAb OKT9 (antibody)”, the Mean Fluorescence intensity stood at 6.53 in assay [5] and 8.84 in assay [6].
